Measurements from patent publication US11833164B2, “Methods of treating Fabry disease in patients having a mutation in the GLA gene” (Amicus Therapeutics, Inc., priority 2019, dated 2023).
Where a chain is given by its changes, count along the chain named. In names and notes the source's numbering stands.

B1: Y365D (protein)
chain: MQLRNPELHLGCALALRFLALVSWDIPGARALDNGLARTPTMGWLHWERFMCNLDCQEEPDSCISEKLFMEMAELMVSEGWKDAGYEYLCIDDCWMAPQRDSEGRLQADPQRFPHGIRQLANYVHSKGLKLGIYADVGNKTCAGFPGSFGYYDIDAQTFADWGVDLLKFDGCYCDSLENLADGYKHMSLALNRTGRSIVYSCEWPLYMWPFQKPNYTEIRQYCNHWRNFADIDDSWKSIKSILDWTSFNQERIVDVAGPGGWNDPDMLVIGNFGLSWNQQVTQMALWAIMAAPLFMSNDLRHISPQAKALLQDKDVIAINQDPLGKQGYQLRQGDNFEVWERPLSGLAWAVAMINRQEIGGPRSDTIAVASLGKGVACNPACFITQLLPVKRKLGFYEWTSRLRSHINPTGTVLLQLENTMQMSLKDLL
B2: Y365S (protein)
chain: B1 chain with D365S
B3: I367F (protein)
chain: B1 chain with D365Y, I367F
B4: A368G (protein)
chain: B1 chain with D365Y, A368G
B5: V369G (protein)
chain: B1 chain with D365Y, V369G
B6: A368P (protein)
chain: B1 chain with D365Y, A368P
B7: T366N (protein)
chain: B1 chain with D365Y, T366N
B8: T366I (protein)
chain: B1 chain with D365Y, T366I
B9: V369L (protein)
chain: B1 chain with D365Y, V369L
B10: I367M (protein)
chain: B1 chain with D365Y, I367M
B11: V369I (protein)
chain: B1 chain with D365Y, V369I
B12: A370D (protein)
chain: B1 chain with D365Y, A370D
B13: A370G (protein)
chain: B1 chain with D365Y, A370G
B14: Y365N (protein)
chain: B1 chain with D365N
B15: I367L (protein)
chain: B1 chain with D365Y, I367L
B16: T366S (protein)
chain: B1 chain with D365Y, T366S
B17: V369F (protein)
chain: B1 chain with D365Y, V369F
B18: A370P (protein)
chain: B1 chain with D365Y, A370P
B19: V369A (protein)
chain: B1 chain with D365Y, V369A
B20: T366P (protein)
chain: B1 chain with D365Y, T366P
B21: Y365F (protein)
chain: B1 chain with D365F

Test system: mutant form of α-Gal A expressed in HEK-293 cells
Test: HEK assay (GLP HEK / Migalastat Amenability Assay): α-Gal A activity in lysates of transiently transfected HEK-293 cells incubated with or without 10 μM migalastat
Format: cell-based, human
Details: for Absolute increase (% WT) / Relative increase: 10 μM migalastat versus baseline; for Baseline α-Gal A activity (% WT): absence of migalastat; for Baseline α-Gal A activity (% WT) / 10 μM migalastat α-Gal A activity (% WT): percentage of baseline wild-type α-Gal A activity; for Baseline α-Gal A activity (% WT) / Baseline α-Gal A activity / 10 μM migalastat α-Gal A activity / 10 μM migalastat α-Gal A activity (% WT): mean ± SEM; for Baseline α-Gal A activity / 10 μM migalastat α-Gal A activity: lysates of HEK-293 cells transiently transfected with the mutant form; for Baseline α-Gal A activity: incubated 5 days in absence of migalastat; for 10 μM migalastat α-Gal A activity: incubated 5 days with 10 μM migalastat; for 10 μM migalastat α-Gal A activity (% WT): with 10 μM migalastat, 5 days
Procedure, shortened: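 HEK-293 cells transiently transfected with mutant α-Gal A and incubated with or without 10 μM migalastat; lysate activity given as nmol free 4-MU released per mg protein per hour. Values are mean±SEM.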

Row | Molecule | Absolute increase (% WT) | Relative increase | Baseline α-Gal A activity (% WT) | Baseline α-Gal A activity | 10 μM migalastat α-Gal A activity | 10 μM migalastat α-Gal A activity (% WT)
1 | B1 | 19.7 % WT | 1.6 | 31.3 ± 2.7 % WT | 9119 ± 1027 nmol/mg/h | 14664 ± 1311 nmol/mg/h | 51 ± 3.5 % WT
2 | B2 | 18.4 % WT | 1.4 | 49.4 ± 4.1 % WT | 14346 ± 1563 nmol/mg/h | 19484 ± 1899 nmol/mg/h | 67.8 ± 4.9 % WT
3 | B3 | 21.6 % WT | 1.4 | 48.3 ± 3.7 % WT | 15728 ± 1680 nmol/mg/h | 22178 ± 1794 nmol/mg/h | 69.9 ± 5.7 % WT
4 | B4 | 30.9 % WT | 1.3 | 83.9 ± 4.7 % WT | 31616 ± 2552 nmol/mg/h | 42198 ± 2923 nmol/mg/h | 114.8 ± 7.8 % WT
5 | B5 | 5.5 % WT | 3.3 | 2.6 ± 0.2 % WT | 803 ± 59 nmol/mg/h | 2628 ± 291 nmol/mg/h | 8.1 ± 0.7 % WT
6 | B6 | 25.7 % WT | 1.3 | 91.7 ± 4.6 % WT | 26402 ± 926 nmol/mg/h | 33525 ± 1803 nmol/mg/h | 117.4 ± 8.7 % WT
7 | B7 | 20.4 % WT | 1.3 | 78.1 ± 5.3 % WT | 24650 ± 1756 nmol/mg/h | 30947 ± 1867 nmol/mg/h | 98.5 ± 5.4 % WT
8 | B8 | 20.0 % WT | 1.3 | 57.8 ± 2.5 % WT | 18539 ± 1165 nmol/mg/h | 24814 ± 1897 nmol/mg/h | 77.8 ± 5.3 % WT
9 | B9 | 30.3 % WT | 1.4 | 74.2 ± 3.7 % WT | 27680 ± 1912 nmol/mg/h | 38458 ± 2367 nmol/mg/h | 104.5 ± 5.6 % WT
10 | B10 | 22.3 % WT | 1.3 | 76.7 ± 3.9 % WT | 28430 ± 1769 nmol/mg/h | 36008 ± 2249 nmol/mg/h | 99 ± 6.7 % WT
11 | B11 | 19.6 % WT | 1.2 | 79.7 ± 6.8 % WT | 30094 ± 3211 nmol/mg/h | 36630 ± 2373 nmol/mg/h | 99.3 ± 5.5 % WT
12 | B12 | 22.4 % WT | 1.2 | 87.5 ± 6.1 % WT | 27098 ± 2504 nmol/mg/h | 33279 ± 2473 nmol/mg/h | 109.8 ± 6.8 % WT
13 | B13 | 22.9 % WT | 1.3 | 78.1 ± 4.4 % WT | 24835 ± 2637 nmol/mg/h | 31805 ± 3001 nmol/mg/h | 101 ± 5.4 % WT
14 | B14 | 22.5 % WT | 1.4 | 59.7 ± 1.7 % WT | 19111 ± 869 nmol/mg/h | 26514 ± 1978 nmol/mg/h | 82.2 ± 4.5 % WT
15 | B15 | 21.9 % WT | 1.2 | 79 ± 4 % WT | 25211 ± 1640 nmol/mg/h | 31257 ± 2256 nmol/mg/h | 101 ± 9.3 % WT
16 | B16 | 16.2 % WT | 1.2 | 70.6 ± 4.9 % WT | 20731 ± 2170 nmol/mg/h | 24885 ± 1760 nmol/mg/h | 86.7 ± 3.6 % WT
17 | B17 | 19.6 % WT | 1.5 | 37.7 ± 2.8 % WT | 11912 ± 1197 nmol/mg/h | 18282 ± 1960 nmol/mg/h | 57.3 ± 4.8 % WT
18 | B18 | 16.9 % WT | 1.5 | 33.9 ± 2.8 % WT | 10431 ± 975 nmol/mg/h | 15618 ± 1776 nmol/mg/h | 50.7 ± 5.4 % WT
19 | B19 | 38.6 % WT | 1.5 | 77.6 ± 5 % WT | 23968 ± 1797 nmol/mg/h | 35925 ± 2462 nmol/mg/h | 116.2 ± 6.3 % WT
20 | B20 | 13.4 % WT | 1.3 | 46.2 ± 4 % WT | 13407 ± 1462 nmol/mg/h | 16910 ± 1608 nmol/mg/h | 59.5 ± 5.1 % WT
21 | B21 | 21.1 % WT | 1.3 | 67.7 ± 5.1 % WT | 19631 ± 2010 nmol/mg/h | 25395 ± 2160 nmol/mg/h | 88.8 ± 5.3 % WT
